The nature of this data set: label from the status in PepcDB records.
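Further: failed if final PepcDB status was selected cloned or expressed and not failed if soluble or beyond.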

Consider “MTGCFLWQLYLPKLQTGSLKPEVPPAPVKMCPRHPELVPLAHPLPVLKEALEKVDGILRKAMLAPGLAAMSALVIHNDTVLWTGNFGRKNGSDPNSGTPNEYTMYRIASISKIFPVLMLYRLWEEGIVDSLDDPLERYASTFSINNPLGTAQGPGAQGPTGESEEMGSLPRPSPVTLRRMASQLSGLPRRLRGTSLLWRGSTQEALSLLKDDVLVADPGTRCHYSTLAFSLLAHVLAAHRAQGDYERWVSEQVLEPLGMSDTGFALTGTVRARLAAGFYGSGRSAPLYDLGWYRPSGQMYSTAADLARLAAALLGAGPRRLLRPDSLATLLAPLRACAHGYFASETGTPWEFHERRGYRVARKDGDLDGYAASLALVPPLRLGFVLLLAGPRPPTRDLVADALDTLLPALERALREAELAPAPPPRARPFAGFFTFANRTFYEVRAAGPRGELRLRQFGPRVEALVPAAFRSLALRHVRGRVFQLHVAREFPCALPLADAWLSLESQHGQLVRFYPLDRHGLAPGFDSCDSMDGWNTTCSAVHFLEDVWVVYNLQFL”, for which the protein production entry is recorded as “failed”.
The result for “MTGDYALCGWRVRIDRPSTFAPPWIGEDRPVDITIRHAAFSPPSPPLLFESPLVGVFAEGAIVLRINPGLGFLIEGGARITVDATAQTGEAEIATFLFGQCLGFLALQRRQPALRAASVVRDGRAVVLAGAAGVGKSTLAAALMAKGWGLLADEVTLIDPRTLLIPPAFGRIKLWKDSATHLGLEAAALPAVRPGWNKGHAPYGGHLAPAPVPLAAIILIEQAYTAKTAGIDKIAPREALAALNDQLHGGTFAGALAARPACFDLLTTLVGGVPVFQLSRPWHGMTLAPLVELLTAEMARLEHHHHHH” reads “failed”; that for “MTGEGRYEEVEAEARTLAALPRRPWRRRPPHWEARVLATGAAVMHGRMAEALDELDTLIAELEPVGLNSQMLRLIARSNRVVALSGLRRYAEAETVANGVLRELNQIAHRAPVSGLETNTLRHLATVLCGLARHEEAEAVVRGNLSRANGPAAGVLHTTLAQSLNGQGRYEEALAEVRRSPPRPPRYAAGHPDLVAAEALYGLGRRAEAEDAVRRSLADCERWLHPAHPRTGEARALLARVTGPKPGEESRGEPGE”, “failed”; that for “MTGFASLPVEFLITVFAMSFSIGFVAIIAGTGGGVLFTSCLWDLHQYIRTNKSNRTSFGDCWAIGPTINLIMLAPLKIATTTSAVVISIGDTAAIFPYFMSGSLLPIFAVPAVAGLMTGARFGSAVAVRVKAKYIRYTLTTILLFAGIKLIWVGLWMLEG”, “failed”.
As to “MTGIWEENTGKQSGDHSTPLRWRCFKHEKNRPPSLVPGQQSGIILACFRRGPPPRCLVKRLPYPGSALVLRRYIMSTSPVTLMVARRVADGRYQDLIAWLREGEQLATDFPGYLGSGVLAPPPNDDEFQIIFRFADESTLHTWEHSASRTAWLARGSDLFAHPSEHRVSGIDGWFGAAGHRPPRWKQAVAIWLAFFPVSLLFNFVLGPLLGDLSLLPRVFVSTLALTPLMVYFFIPLSTRLLANWLNSTPARPLPATPSTQNP”, the protein production entry is “failed”.
The result for “MTGKAKPKKHTAKEIQAKIDAALTNRGGGKAGIADRTGKEKGGHAKYECPHCKITAPGLKTMQIHHESKHPNIIYEESKLVNLHAVLAPVAESKPKPGIRGSLKK” reads “failed”.
With “MTGPLAAARSVAATKSMTAPTVDERPDIKKGLAGVVVDTTAISKVVPQTNSLTYRGYPVQDLAARCSFEQVAFLLWRGELPTDAELALFSQRERASRRVDRSMLSLLAKLPDNCHPMDVVRTAISYLGAEDPDEDDAAANRAKAMRMMAVLPTIVAIDMRRRRGLPPIAPHSGLGYAQNFLHMCFGEVPETAVVSAFEQSMILYAEHGFNASTFAARVVTSTQSDIYSAVTGAIGALKGRLHGGANEAVMHDMIEIGDPANAREWLRAKLARKEKIMGFGHRVYRHGDSRVPTMKRALERVGTVRDGQRWLDIYQVLAAEMASATGILPNLDFPTGPAYYLMGFDIASFTPIFVMSRITGWTAHIMEQATANALIRPLSAYCGHEQRVLPGTF”, the protein production entry is “not failed”.
The result for “MTGQVLDGRYRLVERLGSGGMGEVWRGHDERLGRTVAIKLIHPGASVDDEAVALFRREAQVTARLAGHPNIVILYDYGTDGDTVYTVMELVTGCSLSALLRERGRLPVELAVRWGAHVCAGLAAAHAVGVVHRDIKPSNLMVVDADAPDGGTVKLVDFGIAGFHEAALHQRTLPPTGEPFGTPLYVSPEQIQMLPVGAFSDLYSFGAVLFHMLTGQPPFHAAEPMPVLRMHLTEPPPNPAELRPDVPAELAELVLMLLAKDPGQRPDNALWVRDRLLSLSGTSPPASAASPTESASREAQMRRLEQSWVEAERLAAAGQAAAAAQRIGALLGELAAIYGADHPATLEARRRHASLTSRAGDPERAAALFDTLVADLDRIYGHAHPETYAARHHLAAATEQAGRRAEAAVLRSELVDALTAQYGPQAARLLHPRLFYAVDLAEAGDFTGAEKLLRDLAAALEQQLGAHTPALQIVHHYLDAAAAFASETAGAEPPHPNRFRESTRLDGRPPPHPLRQRLTRWLRSTTEL” reads “failed”.
The result for “MTGTPCPDFTLPGTAGADFQLSSSRKPLVIYFYPKDNTPGCTNESMAFRDLHPEFAALGAEIVGISRDSLKSHQNFKAKLELPFELLSDSEETACSLFGVIKMKNMYGKQVRGIERSTFVIDASGKVSREWRGVKVPGHAEEVLAYVKTLK” reads “failed”; that for “MTGVIAGPSVLGAVSSGSIESLAELGVILLLFTIGLEMSAERFGEFRRTALIGGTLQICLTVSVVTILTMVLGLSPGKAVFLGFLISLSSTAVVLKVLQDFHETEAPHGQASLAILIFQDVAAVPMILTVPFLGGVVGDPSSALGTLLTAGAVLPWEPCIGKVLVPRLFDVVAATGSREIFLLTVILVCASVTWLTGEVGLSPALGAFLVGSIVANTEYAHRAQGTILPFQEVFLSFFFVSLGMLLDLRFFLDHIYLIVLAVIGVLMIKVVMNSLVGFVMGYSARVVVLLGLVLAQIGEFSFILSETGLRYGLMDRLTFQAFLSVSLITMAITPFLISLSPRISERIVRADLHPRIKNGRVYRRPSVDLRDHLIIIGMGITGRRLADTCEDHGIPYIGLDVNPEAVRRARDEGLNVYYGDGTHLAVLRHFNVPEAAVMVIAIADYRSTVHAIHEARALNEGMKIIARIRGFENTEMLYTAGADVVVSEKREATRRISDEIFSCYSGVCELEE”, “failed”.
Consider “MTHCADNGAPLAARQSAARARMSLPVDSPDAATAADSLPPAPAPRPRAPASLVVLATLAVGYTLWAAQTIILPIMLAAFFALIGNPILRGLRKLYIPRFLGALLILCLGLAGTVTLAAQLAGPAAEWVQQAPRQMRQIARDVRDLTKPVMQANQAAENFARAAGGEGQRGVQIVRTQMDDPYKALVRTPKLAASVLAVVLLTFFFMVYGESLQRHAIALLPNRQQQRFTTEIMLDIEREVSRYVLTISVINTLVGLVFAGILYVLQIPLPEAILWGTVVALLNFAPYVGPLIGVMLMLLMGFVEFRTTLSSLLPAILYLALHTIEGQVVTPIVLGRRMAISPLMLILALMLFGWLWGMVGLLLAVPLLVCIKMVLSRVDGMQRWARLLE”, for which the protein production entry is listed as “failed”.
With “MTHEAMSPGEWKAKGGGLTIRYGFHASPFGLALVMITDRGLAGCAFADPGDERACFEDMAGRWPNADYVEDREATAPYAARIFEPAMWTADKPLRVVLEHHHHHH”, the protein production entry was “not failed”.
The result for “MTHERGYDLASQVLNICNVHHKKLFCHITYRHLLVLSSDDNGCVILKKVITIADDFLKDEFLDLIAQHAHSLSMHDLGISLIQHVLELDFTKKTTQDDKRLHELMAEFDEVLSTSVTADVDKLHKLASKLMLDSDLFFEFVITRRGSLMIQIILGKSEEVDQVILAGVKQRFIDVTTNFYGYRIMIQTIKVFKKRGDLKVYDQILRLIGVHALYLTKDPDMGNKTFQHAINLHHQDCTTFIACGLQSHYIELSFLKHGSKIVEMLIDDRISMVPLVLLMMEIVKCDEDTLVRLATDEYGNNILKKFLALAKEHKEDFFGDLVDKLNPLLDSLRGTLGENIVAIIDSETEMVKDRIVSQGNN” reads “failed”.
The result for “MTHPFEPFFDKDSKILILGSFPSIKSRQDGFYYQHPRNRFWPILETLFNAKLENITEQQAFLRKKHIALWDVLQSCKIKNSDDKTISYAKANDLNLILSQTKIQAIFTTGQSAYRFFVKFHPRLEAIALPSTSPANLNFSFEQLLQNYEIIKKFTKLEHHHHHH” reads “failed”.
The result for “MTHPLYIFDLDETLINGDCAMIWNEFLVDKGIVTTPDFLEEDKRLMTLYSRGLMDMEDYLIFAMSPLKNIPTDQVEILIEECVNERILPLLFPEAKILIHQLKADNVDMIVISASVSFLVKIVAKNIGIKHAIGIDLKEKNGCYTRHILGVPSYREGKVSRLTEWLNGGDKTYSALHFYTDSINDLPLCLYADHTYLVNPCEQLAVYSKKKNWPILAWGSQ” reads “failed”.
“MTHRPMLNKIKLFFIVQIILSFLVLAGTLISILVIPSHLPDYFIWAIAFSFWVFQCGFSTIFAFRYRISKSSLSTIKLSFILIGSIQILITLATNLFGIFDLPIFNTLIIKNFQFLILSLIFIVMIYKLIKDMLKYRVLKDYIIRDSFFTFIPFAFIIYKNSKYFISSIYFLDDSVYSLALLNINSLRIFLEGFLIILIFVKTIYLRGNKKSSFLLLIYFYVSNLNCYIVSYFNSKLLFSHYLYQGIGIYFICPILLMLSIYHSITEQEKAPDQVLFDDSYMNINNSWISITIGIFPVSFSAIDIISSSIASGDFNGIESLVIILLVMILLVCRDVILRKDNLRLIASVKRANEIDFLTNMYSRNYFLKKLETINTDYALFFIDIKSFKDINNIFGHVVGDKVLVEVANKFKELKLLLGKNVFYCRYSGNEFALISKLDQVDLILKFFRDLENIKIQHNSDLIHINFNIGYSLNDSNINLDLLIQETDYALMRAKKLKGPNNSILMYDDNLKTDLEHMNILKKDFKNDLLTGKFHLVFQPKVCVKTLKIVGFETLLRWKHDKLGEISPSKFVPIAENLGEISSLDLYVFKKSCEFQRCLIDKGIKLKCSVNLSLNTLKSYEKINEILNIYKEYKIPKHLITAEILENVSLNNNAKTISYINLLRENGICISIDDFGTGYSSLSQISNLYFDELKIPREFVIDARTPSKLAVIEAISILAKKLKVTSVIEGVENYEDFKLFSSLGFDIVQGYYFSKPLTKSEIIDYIKVNINNKIS”: the protein production entry was “failed”.
The result for “MTHSQQSMVDTFRASLFDNQDITVADQQIQALPYSTMYLRLNEGQRIFVVLGYIEQEQSKWLSQDNAMLVTHNGRLLKTVKLNNNLLEVTNSGQDPLRNALAIKDGSRWTRDILWSEDNHFRSATLSSTFSFAGLETLNIAGRNVLCNVWQEEVTSTRPEKQWQNTFWVDSATGQVRQSRQMLGAGVIPVEMTFLKPAPLEHHHHHH” reads “not failed”.
The result for “MTHTRRALSTVGKGLAALRHLLPLLLCLLVLAGCAKAPYTGRSQFIMVSPQQEMALGQQESRKILSKEPVKTGTDEAQRVETVGRRIAAAARRGDFRWEFHLIGKDVANAFCLPGGKVFVYEGIFKYADTDAELATVMAHEVGHAIARHGAERMSRAMMVQMGHDAAAIALGVAGGSPAAVQAFSQAYGTGANVGLMLPFGREQEYEADRIGLMLMAQAGYDPRAALDFWRKMSSAPGKRPPEFLSTHPTGQHRIAELQARMGDALRVYRPPSGK” reads “failed”; that for “MTHVNIMAGGPQACLPAAWEQLPGVWIGVDRGTLRLVRAGIHPELAVGDFDSLTLEELRLVRGHVQKLQQVPSEKDDTDTELAVKAALQASSSGDVTLVGGTGGRLDHFLSNLFLPLQPRFLADVERLHLFDVQNWVDYYSPGEHEIKPLPGYRYVAVVNLTPVADLTIVGAKYPLKPWRAGYPYAWASNEFLGKQPFTVSWTTGQVAIIYSRDRRGQKLDNLEHHHHHH”, “not failed”.
